Test [1] relates to neonatal rat ventricular myocytes. Kind of test: Hypertrophy of neonatal rat ventricular myocytes (PDE3 inhibitor treatment or transfection with dominant-negative constructs, with or without norepinephrine). It is filed as cell-based. The text has this: FIG. 5. Anti-hypertrophic actions of PDE3A1-selective targeting in neonatal rat ventricular myocytes.
In contrast, expression of the PDE3A1 dominant negative has no pro-hypertrophic effect, and actually blocks the hypertrophic responses to norepinephrine.
In neonatal rat ventricular myocytes, conventional PDE3 inhibition promotes cellular hypertrophy, which may be associated with adverse consequences in heart failure. We questioned what effect PDE3A1-selective inhibition would have. […] The F1004A substitution is a change in the amino acid sequence of PDE3A1 at amino acid position 1004 from a phenylalanine to an alanine. We transfected neonatal rat ventricular myocytes with this dominant-negative construct to competitively block the protein-protein interactions that localize PDE3A1 to specific intracellular microdomains. […] To our knowledge, this is the first direct evidence that conventional PDE3 inhibition and isoform-selective targeting have different effects in cardiac myocytes, and that some of the adverse consequences of nonselective PDE3 inhibition may be averted by isoform-selective targeting involving protein-protein interactions.

The target of the next test is T1, rSERCA2 (Homo sapiens, UniProt P16615).
T1 construct: purchased Abnova
Kind of test: Co-immunoprecipitation of Flag-tagged rhPDE3A variants and rSERCA2 after incubation with or without rPKAc. It is filed as binding. The conditions noted are these: for PKA-stimulated (phosphorylation-dependent) interaction with SERCA2: serine-to-alanine mutants of rhPDE3A1, 50 units rPKAc, co-IP. The source says:
FIG. 11 a-d. rPKAc phosphorylates rhPDE3A and increases its interactions rSERCA2. A. Schemes representing PDE3A1 [NHR1: trans-membrane domain (obligatory membrane insertion domain); NHR2: membrane association domain; CCR: conserved C-terminal catalytic region; P1-4: predicted PKA phosphorylation sites; rhPDE3A and truncated mutants (PDE3A2, PDE3A-A510, PDE3A-RD), and rSERCA2 (1042 amino acids, 3-77 cation transporter N-terminal; 93-341, E1-E2 ATPase; 345-724, haloacid dehydrogenase like hydrolase; 819-991, cation transporter ATPase C-terminus). B. Putative PKA phosphorylation sites of PDE3A designated with asterisks. C-D. Purified rSERCA2 (150 ng) (Abnova) and 50 units of Flag-tagged rhPDE3A1 truncated mutants [rhPDE3A2, rhPDE3A-A510, and similarly expressed rhPDE3A-RD (aa 146-484)](FIG. 11D) or mutants lacking the PKA putative phosphorylation site mutants of rhPDE3A1 [Ser292/293A (M1), S312A (M2), S428A (M3), S438A (M4), S292A/293A/312A/438A (M5)](FIG. 11C) were incubated with or without 50 units of rPKAc at 30° C. for 30 min and 5 mM MgCl2 in phosphorylation buffer. Proteins were immunoprecipitated with anti-Flag antibodies and immunoblotted with anti-SERCA2 (upper panel), or anti-Flag (middle panel). Lower panel: input control (SERCA2). Shown are representative blots from three independent experiments. (RD: regulatory domain; AA: amino acid).
Flag-tagged rhPDE3A1 and its phosphorylation site mutants [rhPDE3A1-S292A/293A (M1), rhPDE3A1-S312A (M2), rhPDE3A1-S428A (M3), rhPDE3A1-S438A (M4), rhPDE3A1-S292A/293A/312A/438A (M5) open reading frame [accession #NP_000912] was synthesized by Genscript, Inc (Piscataway, N.J.), subcloned into pAcSG2 baculoviral expression vector. Flag-tagged rhPDE3A variants and phosphorylation site mutants were expressed in SF21 cells [(10-20)×106 SF21 cells/75-cm2 flask] as described (19,20). SF21 cells were harvested, sedimented (10 min, 1000×g, 4° C.), washed twice with ice-cold PBS, resuspended, homogenized (in a Dounce homogenizer) in buffer B and sonicated […]. A comparison of the translated sequences of human AKAP18γ (AC NP_057461 and AK300587; 348 aa residues) and rat AKAP18δ (3) (AC QJP77; 352 aa residues) indicate that eight of the first twelve aa residues of human AKAP18γ and rat AKAP18δ are identical, and that the proteins are homologous (˜74% aa identity). SF21 cell extracts, which contained his-tagged-rAKAP18δ, were prepared as described above. Flag-tagged rhPDE3A1 (usually 50 arbitrary (u) units) was incubated (30 min, 30° C.) with rAKAP18δ (200 μl, containing 50 ng of recombinant protein), with or without different concentrations of rPKAc (final volume, 300 μl) in buffer B containing 2 mM DTT and 200 μM ATP. Reactions were stopped by dilution of reaction mixtures to 1.0 ml with buffer B containing 1 mg/ml SF21 cell lysates, and cleared as described above (cf ‘Immunoprecipitation and immunoblotting’ subsection). His-tagged rAKAP18δ was immunoprecipitated with anti-his Mab Mag-beads (Genscript). Anti-his Mab Mag beads-bound immunoprecipitates were washed, collected, and anti-his Mab Mag-beads-bound proteins were eluted by boiling in Laemmli's SDS buffer (100 μl) and samples (15 μl) of immunoprecipitated proteins as well as of reaction mixtures (‘input proteins’) were immunoblotted with indicated antibodies as described above.

Positions count from the first letter of the chain named. In names and notes the source's numbering stands.

T1 sequence (P16615 whole entry): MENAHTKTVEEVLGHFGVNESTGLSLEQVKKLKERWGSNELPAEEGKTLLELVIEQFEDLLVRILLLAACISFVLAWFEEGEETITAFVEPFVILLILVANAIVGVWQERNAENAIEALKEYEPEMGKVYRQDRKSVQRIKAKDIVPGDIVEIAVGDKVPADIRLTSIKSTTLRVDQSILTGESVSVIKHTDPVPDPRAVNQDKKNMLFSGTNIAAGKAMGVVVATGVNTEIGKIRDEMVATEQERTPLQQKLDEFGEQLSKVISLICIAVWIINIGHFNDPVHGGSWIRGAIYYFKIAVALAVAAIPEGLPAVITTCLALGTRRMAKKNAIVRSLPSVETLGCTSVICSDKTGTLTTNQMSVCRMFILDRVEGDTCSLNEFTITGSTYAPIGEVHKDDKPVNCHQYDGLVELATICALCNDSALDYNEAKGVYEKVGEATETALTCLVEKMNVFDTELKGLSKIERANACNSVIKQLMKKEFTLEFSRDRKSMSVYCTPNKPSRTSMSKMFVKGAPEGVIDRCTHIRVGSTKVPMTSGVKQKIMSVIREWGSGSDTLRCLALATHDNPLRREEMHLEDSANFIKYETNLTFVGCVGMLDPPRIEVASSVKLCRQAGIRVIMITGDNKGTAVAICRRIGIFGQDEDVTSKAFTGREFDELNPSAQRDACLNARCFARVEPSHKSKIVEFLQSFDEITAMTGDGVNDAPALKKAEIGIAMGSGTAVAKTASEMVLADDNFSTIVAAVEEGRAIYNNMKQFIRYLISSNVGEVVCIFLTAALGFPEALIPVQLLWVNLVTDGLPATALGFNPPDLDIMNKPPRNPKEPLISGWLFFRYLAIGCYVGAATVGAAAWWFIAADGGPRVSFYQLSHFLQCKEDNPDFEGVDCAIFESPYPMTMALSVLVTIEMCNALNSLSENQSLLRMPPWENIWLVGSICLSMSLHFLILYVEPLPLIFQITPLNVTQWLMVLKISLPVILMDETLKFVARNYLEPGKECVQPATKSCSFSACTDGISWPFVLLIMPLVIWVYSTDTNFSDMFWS

B1: PDE3A1-F1004A: RFP-tagged PDE3A1 construct with F1004A substitution in the C-terminus yielding a catalytically inactive, dominant-negative protein (SEQ ID NO:2) (protein, listed as Homo sapiens)
chain: MAVPGDAARVRDKPVHSGVSQAPTAGRDCHHRADPASPRDSGCRGCWGDLVLQPLRSSRKLSSALCAGSLSFLLALLVRLVRGEVGCDLEQCKEAAAAEEEEAAPGAEGGVFPGPRGGAPGGGARLSPWLQPSALLFSLLCAFFWMGLYLLRAGVRLPLAVALLAACCGGEALVQIGLGVGEDHLLSLPAAGVVLSCLAAATWLVLRLRLGVLMIALTSAVRTVSLISLERFKVAWRPYLAYLAGVLGILLARYVEQILPQSAEAAPREHLGSQLIAGTKEDIPVFKRRRRSSSVVSAEMSGCSSKSHRRTSLPCIPREQLMGHSEWDHKRGPRGSQSSGTSITVDIAVMGEAHGLITDLLADPSLPPNVCTSLRAVSNLLSTQLTFQAIHKPRVNPVTSLSENYTCSDSEESSEKDKLAIPKRLRRSLPPGLLRRVSSTWTTTTSATGLPTLEPAPVRRDRSTSIKLQEAPSSSPDSWNNPVMMTLTKSRSFTSSYAISAANHVKAKKQSRPGALAKISPLSSPCSSPLQGTPASSLVSKISAVQFPESADTTAKQSLGSHRALTYTQSAPDLSPQILTPPVICSSCGRPYSQGNPADEPLERSGVATRTPSRTDDTAQVTSDYETNNNSDSSDIVQNEDETECLREPLRKASACSTYAPETMMFLDKPILAPEPLVMDNLDSIMEQLNTWNFPIFDLVENIGRKCGRILSQVSYRLFEDMGLFEAFKIPIREFMNYFHALEIGYRDIPYHNRIHATDVLHAVWYLTTQPIPGLSTVINDHGSTSDSDSDSGFTHGHMGYVFSKTYNVTDDKYGCLSGNIPALELMALYVAAAMHDYDHPGRTNAFLVATSAPQAVLYNDRSVLENHHAAAAWNLFMSRPEYNFLINLDHVEFKHFRFLVIEAILATDLKKHFDFVAKFNGKVNDDVGIDWTNENDRLLVCQMCIKLADINGPAKCKELHLQWTDGIVNEFYEQGDEEASLGLPISPFMDRSAPQLANLQESAISHIVGPLCNSYDSAGLMPGKWVEDSDESGDTDDPEEEEEEAPAPNEEETCENNESPKKKTFKRRKIYCQITQHLLQNHKMWKKVIEEEQRLAGIENQSLDQTPQSHSSEQIQAIKEEEEEKGKPRGEEIPTQKPDQ
modifications: RFP tag; (1)..(1141) conceptual translation of the longest ORF of the PDE3A gene with a mutation at amino acid position 1004 in which phenylalanine is changed to alanine; presence of alanine at amino acid 1004 inactivates phosphodiesterase activity
Consider B1, for which, in test [1] (neonatal rat ventricular myocytes transfected with construct, norepinephrine), the “hypertrophic response to norepinephrine” value is “blocked the hypertrophic response to norepinephrine”. In test [1] (neonatal rat ventricular myocytes, treatment or transfection alone), the cellular hypertrophy result was “did not induce cellular hypertrophy”.

B2: M1: Flag-tagged rhPDE3A1 phosphorylation site mutant S292A/293A (protein, UniProt Q14432 1-1141, looked up, variant S292A S293A)
cGMP-inhibited 3',5'-cyclic …: B1 chain with S292A, S293A, A1004F
modifications: Flag tag
notes: Flag-tagged rhPDE3A1 phosphorylation site mutant S292A/293A
Turning to B2, in the test with rSERCA2, the “PKA-stimulated (phosphorylation-dependent) interaction with SERCA2” value (shortened to “PKA-stimulated”) is given as “markedly diminished”.

B3: M3: Flag-tagged rhPDE3A1 phosphorylation site mutant S428A (protein, UniProt Q14432 1-1141, looked up, variant S428A)
cGMP-inhibited 3',5'-cyclic …: B1 chain with S428A, A1004F
modifications: Flag tag
notes: Flag-tagged rhPDE3A1 phosphorylation site mutant S428A
On to B3, for which the “PKA-stimulated” value with rSERCA2 is given as “slightly decreased”.

B4: M2: Flag-tagged rhPDE3A1 phosphorylation site mutant S312A (protein, UniProt Q14432 1-1141, looked up, variant S312A)
cGMP-inhibited 3',5'-cyclic …: B1 chain with S312A, A1004F
modifications: Flag tag
notes: Flag-tagged rhPDE3A1 phosphorylation site mutant S312A
B4: in the test with rSERCA2, the “PKA-stimulated” value is given as “slightly decreased”.

B5: M4: Flag-tagged rhPDE3A1 phosphorylation site mutant S438A (protein, UniProt Q14432 1-1141, looked up, variant S438A)
cGMP-inhibited 3',5'-cyclic …: B1 chain with S438A, A1004F
modifications: Flag tag
notes: Flag-tagged rhPDE3A1 phosphorylation site mutant S438A
Regarding B5, in the test with rSERCA2, the “PKA-stimulated” value is listed as “had no effect”.

B6: M5: Flag-tagged rhPDE3A1 phosphorylation site mutant S292A/293A/312A/438A (protein, UniProt Q14432 1-1141, looked up, variant S292A S293A S312A S438A)
cGMP-inhibited 3',5'-cyclic …: B1 chain with S292A, S293A, S312A, S438A, A1004F
modifications: Flag tag
notes: Flag-tagged rhPDE3A1 phosphorylation site mutant S292A/293A/312A/438A
Turning to B6, the “PKA-stimulated” value in the test with rSERCA2 is “markedly diminished”.

B7: rPDE3A-RD: construct containing only the N-terminal portion of PDE3A1 (aa 146-484), regulatory domain (protein)
chain: MGLYLLRAGVRLPLAVALLAACCGGEALVQIGLGVGEDHLLSLPAAGVVLSCLAAATWLVLRLRLGVLMIALTSAVRTVSLISLERFKVAWRPYLAYLAGVLGILLARYVEQILPQSAEAAPREHLGSQLIAGTKEDIPVFKRRRRSSSVVSAEMSGCSSKSHRRTSLPCIPREQLMGHSEWDHKRGPRGSQSSGTSITVDIAVMGEAHGLITDLLADPSLPPNVCTSLRAVSNLLSTQLTFQAIHKPRVNPVTSLSENYTCSDSEESSEKDKLAIPKRLRRSLPPGLLRRVSSTWTTTTSATGLPTLEPAPVRRDRSTSIKLQEAPSSSPDSWNNPVM
On to B7, for which, in the test with rSERCA2 (truncated rhPDE3A constructs), the “co-immunoprecipitation of rSERCA2 with construct” value is listed as “co-immunoprecipitated”.

The values are drawn from patent US9994830B2, “Methods for modulating cyclic nucleotide-mediated signaling in cardiac myocytes and compositions” (The United States of America as Represented by the …, priority 2014, dated 2018).
